Measurements: publication PMC8024396, “Biochemical and structural characterization of the BioZ enzyme engaged in bacterial biotin synthesis pathway” (Nature Communications, 2021)

B1: glutaryl-ACP, P0A6A8 1-78 (natural protein)
chain: MSTIEERVKKIIGEQLGVKQEEVTNNASFVEDLGADSLDTVELVMALEEEFDTEIPDEEAEKITTVQAAIDYINGHQA
modifications: here or on the partner: glutaryl thioester on the phosphopantetheine (Ppan) of Serine 36
B2: malonyl-ACP, P0A6A8 1-78 (natural protein)
chain: B1 chain
modifications: here or on the partner: malonyl thioester on the phosphopantetheine (Ppan) of Serine 36
B3: E. coli holo-ACP, P0A6A8 1-78 (natural protein)
chain: B1 chain
modifications: here or on the partner: phosphopantetheine (Ppan) on Serine 36 (holo-ACP)
B4: Agrobacterium tumefaciens BioZ (enzyme, UniProt A0AA44F6N6 1-328, looked up)
chain: MQTRSSRMAGFGHAVPARCVRNAEIETRLGLEAGWIERRTGIRTRYWAQEGETLSGLAEKAGRMALENARIGAEDIALTLLATSTPDHLLPPSAPLLAHRLGLTQSGAIDLAGACSGFLYALTLADGFVRTHGRAVLVVAANILSRRINPAERATAVLFADAAGAVVLVPCRDAQRGLLSADLVSDGSGYDLIQIAAGGSSQPFSNDTEAEDTLMTMRDGREVFSRAVATMTQTSQRALQRAEMTATDIQRFLPHQANARMFDAVCGNIGIDRQKTVRTVETFGNSSAATIPLSLSVSNAERPITEGETLLLTAAGAGMTGGAVVYRG
notes: BioZ (FabH2), atypical beta-ketoacyl-ACP synthase III of Agrobacterium tumefaciens; bioZ gene cloned into pET28a; apparent mass ~36 kDa; 654 protein residues in the two protomers of PDB 6KUE; also called AtBioZ; FabH2; source: E. coli BL21 with pET28::atbioZ, purified (Ni-NTA, TEV cleavage, Superdex 200 Increase SEC); not shown: His6, N-terminal, cleaved

Key:
[1] = biological target: T1, AtBioZ (FabH2, beta-ketoacyl-ACP synthase III) (Agrobacterium fabrum, UniProt Q7CTU0, C115A); assay: ITC (MicroCal PEAQ-ITC, […] °C), N = […]; format: binding
T1 construct: gene bioZ; purified BioZ(C115A)

[2] = biological target: BioZ(C115A) mutant enzyme of Agrobacterium tumefaciens (Agrobacterium tumefaciens), A0AA44; assay: ITC; MicroCal PEAQ-ITC, 25 °C; 50 μM BioZ(C115A) in the cell, 750 μM substrate in the syringe; 20 mM Tris pH 8.0, 150 mM NaCl; one binding-site model; three independent measurements; conditions: remark: other sources report otherwise
[3] = biological target: the molecule itself; assay: SEC; gel filtration of purified AtBioZ on Superdex 200 Increase 10/300; GF buffer (25 mM Tris-HCl pH 8.0, 100 mM NaCl, 2 mM DTT)

| Molecule | Kd [1] | Kd [2] | stoichiometry N [2] | stoichiometry N [3] |
| --- | --- | --- | --- | --- |
| CC(C)(COP(=O)(O)OP(=O)(O)OC[C@H]1O[C@@H](n2cnc3c(N)ncnc32)[C@H](O)[C@@H]1OP(=O)(O)O)[C@@H](O)C(=O)NCCC(=O)NCCSC(=O)CCCC(=O)O [glutaryl-CoA] | 2.64 ± 0.23 µM |  |  |  |
| B1 |  | 6.17 µM | 0.978 |  |
| B2 |  | 24.1 µM | 0.996 |  |
| B3 |  | 330 µM | 1 |  |
| B4 |  |  |  | 2 |
